T1: recombinant FXIII-B (coagulation factor XIII B subunit) (human, UniProt P05160 21-661)
T1 chain: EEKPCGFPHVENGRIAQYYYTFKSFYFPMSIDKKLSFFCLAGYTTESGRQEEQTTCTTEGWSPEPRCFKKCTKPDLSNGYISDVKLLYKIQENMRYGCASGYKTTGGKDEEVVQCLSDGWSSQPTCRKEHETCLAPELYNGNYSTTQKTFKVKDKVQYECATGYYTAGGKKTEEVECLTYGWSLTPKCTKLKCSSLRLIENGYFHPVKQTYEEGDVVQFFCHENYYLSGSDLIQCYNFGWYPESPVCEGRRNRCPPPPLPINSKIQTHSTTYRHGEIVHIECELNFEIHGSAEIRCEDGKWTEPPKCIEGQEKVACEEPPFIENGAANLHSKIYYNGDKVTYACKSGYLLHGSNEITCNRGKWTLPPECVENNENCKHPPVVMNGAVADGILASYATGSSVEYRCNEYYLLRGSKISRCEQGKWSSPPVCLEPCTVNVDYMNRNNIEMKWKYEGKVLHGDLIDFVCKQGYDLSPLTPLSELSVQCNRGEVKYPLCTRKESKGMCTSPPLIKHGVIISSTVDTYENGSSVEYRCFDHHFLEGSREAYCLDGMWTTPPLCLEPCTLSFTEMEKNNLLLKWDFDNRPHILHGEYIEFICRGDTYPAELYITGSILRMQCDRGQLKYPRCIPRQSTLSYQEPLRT


Assays:
[1] = target: T1, recombinant FXIII-B (coagulation factor …); assay: ITC; event 2: M1A1 + A1 ↔ M1A2 (second site)
[2] = target: recombinant FXIII-A2 (coagulation factor XIII A subunit dimer) (UniProt P00488 2-732, zymogen dimer with activation peptide retained (paper residues 1-37 = entry 2-38; paper numbering = entry minus 1); initiator Met removed; limits follow the paper's domain boundaries (1-731) and PDB 1); assay: ITC; 2.5 µM rFXIII-A2 in the cell, 25 µM rFXIII-B in the syringe; MicroCal200; one set of binding sites fitted in Origin, stepwise model FS ↔ MA + A1 ↔ MA2 fitted in Affinimeter; settings: both partners purified

Binder	Kd [1] [µM]	KD of the first binding event (sequential two-step model) [2] [µM]	KD of the second binding event (MA↔MA2) [2] [µM]	dH of the first binding event (sequential two-step model) [2] [kcal/mol]	dH of the second binding event (MA↔MA2) [2] [kcal/mol]
recombinant FXIII-A2 (coagulation factor XIII A subunit dimer) (natural protein, zymogen dimer with activation peptide retained (paper residues 1-37 = entry 2-38; paper numbering = entry minus 1); initiator Met removed; limits follow the paper's domain boundaries (1-731) and PDB 1F13; any residual tag residues not stated) SETSRTAFGGRRAVPPNNSNAAEDDLPTVELQGVVPRGVNLQEFLNVTSVHLFKERWDTNKVDHHTDKYENNKLIVRRGQSFYVQIDFSRPYDPRRDLFRVEYVIGRYPQENKGTYIPVPIVSELQSGKWGAKIVMREDRSVRLSIQSSPKCIVGKFRMYVAVWTPYGVLRTSRNPETDTYILFNPWCEDDAVYLDNEKEREEYVLNDIGVIFYGEVNDIKTRSWSYGQFEDGILDTCLYVMDRAQMDLSGRGNPIKVSRVGSAMVNAKDDEGVLVGSWDNIYAYGVPPSAWTGSVDILLEYRSSENPVRYGQCWVFAGVFNTFLRCLGIPARIVTNYFSAHDNDANLQMDIFLEEDGNVNSKLTKDSVWNYHCWNEAWMTRPDLPVGFGGWQAVDSTPQENSDGMYRCGPASVQAIKHGHVCFQFDAPFVFAEVNSDLIYITAKKDGTHVVENVDATHIGKLIVTKQIGGDGMMDITDTYKFQEGQEEERLALETALMYGAKKPLNTEGVMKSRSNVDMDFEVENAVLGKDFKLSITFRNNSHNRYTITAYLSANITFYTGVPKAEFKKETFDVTLEPLSFKKEAVLIQAGEYMGQLLEQASLHFFVTARINETRDVLAKQKSTVLTIPEIIIKVRGTQVVGSDMTVTVEFTNPLKETLRNVWVHLDGPGVTRPMKKMFREIRPNSTVQWEEVCRPWVSGHRKLIASMSSDSLRHVYGELDVQIQRRPSM	4.36				
recombinant FXIII-B (coagulation factor XIII B subunit) (natural protein, human, UniProt P05160 21-661, looked up, coagulation factor XIII B subunit, human cDNA in the pReciever-M01 mammalian expression vector; secreted protein; the stepwise ITC model treats the syringe species as single FXIII-B units; also called rFXIII-B; rFXIII-B2) EEKPCGFPHVENGRIAQYYYTFKSFYFPMSIDKKLSFFCLAGYTTESGRQEEQTTCTTEGWSPEPRCFKKCTKPDLSNGYISDVKLLYKIQENMRYGCASGYKTTGGKDEEVVQCLSDGWSSQPTCRKEHETCLAPELYNGNYSTTQKTFKVKDKVQYECATGYYTAGGKKTEEVECLTYGWSLTPKCTKLKCSSLRLIENGYFHPVKQTYEEGDVVQFFCHENYYLSGSDLIQCYNFGWYPESPVCEGRRNRCPPPPLPINSKIQTHSTTYRHGEIVHIECELNFEIHGSAEIRCEDGKWTEPPKCIEGQEKVACEEPPFIENGAANLHSKIYYNGDKVTYACKSGYLLHGSNEITCNRGKWTLPPECVENNENCKHPPVVMNGAVADGILASYATGSSVEYRCNEYYLLRGSKISRCEQGKWSSPPVCLEPCTVNVDYMNRNNIEMKWKYEGKVLHGDLIDFVCKQGYDLSPLTPLSELSVQCNRGEVKYPLCTRKESKGMCTSPPLIKHGVIISSTVDTYENGSSVEYRCFDHHFLEGSREAYCLDGMWTTPPLCLEPCTLSFTEMEKNNLLLKWDFDNRPHILHGEYIEFICRGDTYPAELYITGSILRMQCDRGQLKYPRCIPRQSTLSYQEPLRT		0.0015	4.3	-54.1	-86
